{"source": "the Immune Epitope Database (IEDB)", "key": {"HLA-A*02:01 [1]": {"molecular_target": "HLA-A*02:01", "assay": "IEDB peptide-MHC binding, purified MHC/competitive/radioactivity; filed as Kd, often an IC50 or EC50 that approximates it; ≥ and ≤ were set here for values at or beyond the usual limits of such assays", "settings": "source organism: Homo sapiens"}, "HLA-A*02:01 [2]": {"molecular_target": "HLA-A*02:01", "assay": "IEDB peptide-MHC binding, purified MHC/competitive/radioactivity; ≥ and ≤ were set here for values at or beyond the usual limits of such assays", "settings": "source organism: Homo sapiens"}}}
{"sequence": "AANDPIFVV", "values": [{"measurement": "Kd", "setting": "HLA-A*02:01 [1]", "value": "≥ 10", "unit": "µM"}]}
{"sequence": "AARPDDPTL", "values": [{"measurement": "Kd", "setting": "HLA-A*02:01 [1]", "value": "≥ 10", "unit": "µM"}]}
{"sequence": "ALDLAKKRV", "values": [{"measurement": "Kd", "setting": "HLA-A*02:01 [1]", "value": "≥ 10", "unit": "µM"}]}
{"sequence": "ALPYWNFAT", "values": [{"measurement": "Kd", "setting": "HLA-A*02:01 [1]", "value": 1.35, "unit": "µM"}]}
{"sequence": "ALVGLFVLL", "values": [{"measurement": "IC50", "setting": "HLA-A*02:01 [2]", "value": 0.026, "unit": "µM"}]}
{"sequence": "ATGRNECDV", "values": [{"measurement": "Kd", "setting": "HLA-A*02:01 [1]", "value": "≥ 10", "unit": "µM"}]}
{"sequence": "CLERDLQRL", "values": [{"measurement": "Kd", "setting": "HLA-A*02:01 [1]", "value": "≥ 10", "unit": "µM"}]}
{"sequence": "FVTWHRYHL", "values": [{"measurement": "IC50", "setting": "HLA-A*02:01 [2]", "value": 0.943, "unit": "µM"}]}
{"sequence": "GAQGQFPRV", "values": [{"measurement": "Kd", "setting": "HLA-A*02:01 [1]", "value": "≥ 10", "unit": "µM"}]}
{"sequence": "GTLVALVGL", "values": [{"measurement": "Kd", "setting": "HLA-A*02:01 [1]", "value": 4.54, "unit": "µM"}]}
{"sequence": "ITTQHWLGL", "values": [{"measurement": "Kd", "setting": "HLA-A*02:01 [1]", "value": "≥ 10", "unit": "µM"}]}
{"sequence": "LAFLQYRRL", "values": [{"measurement": "Kd", "setting": "HLA-A*02:01 [1]", "value": "≥ 10", "unit": "µM"}]}
{"sequence": "LIGNESFAL", "values": [{"measurement": "IC50", "setting": "HLA-A*02:01 [2]", "value": 0.385, "unit": "µM"}]}
{"sequence": "LLAFLQYRRL", "values": [{"measurement": "Kd", "setting": "HLA-A*02:01 [1]", "value": 1.52, "unit": "µM"}]}
{"sequence": "LLSCLGCKI", "values": [{"measurement": "Kd", "setting": "HLA-A*02:01 [1]", "value": 3.57, "unit": "µM"}]}
{"sequence": "LLSCLGCKIL", "values": [{"measurement": "Kd", "setting": "HLA-A*02:01 [1]", "value": "≥ 10", "unit": "µM"}]}
{"sequence": "LLVVMGTLV", "values": [{"measurement": "Kd", "setting": "HLA-A*02:01 [1]", "value": 1.35, "unit": "µM"}]}
{"sequence": "NCERKKPPV", "values": [{"measurement": "Kd", "setting": "HLA-A*02:01 [1]", "value": "≥ 10", "unit": "µM"}]}
{"sequence": "NCSVYDFFV", "values": [{"measurement": "Kd", "setting": "HLA-A*02:01 [1]", "value": "≥ 10", "unit": "µM"}]}
{"sequence": "QGRGQCTEV", "values": [{"measurement": "Kd", "setting": "HLA-A*02:01 [1]", "value": "≥ 10", "unit": "µM"}]}
{"sequence": "QLGYSYAIDL", "values": [{"measurement": "Kd", "setting": "HLA-A*02:01 [1]", "value": 2.63, "unit": "µM"}]}
{"sequence": "QMGRNSMKL", "values": [{"measurement": "Kd", "setting": "HLA-A*02:01 [1]", "value": "≥ 10", "unit": "µM"}]}
{"sequence": "QVMSLHNLV", "values": [{"measurement": "IC50", "setting": "HLA-A*02:01 [2]", "value": 0.676, "unit": "µM"}]}
{"sequence": "SAANDPIFV", "values": [{"measurement": "Kd", "setting": "HLA-A*02:01 [1]", "value": 4.54, "unit": "µM"}]}
{"sequence": "STFSFRNAL", "values": [{"measurement": "Kd", "setting": "HLA-A*02:01 [1]", "value": "≥ 10", "unit": "µM"}]}
{"sequence": "TLDSQVMSL", "values": [{"measurement": "IC50", "setting": "HLA-A*02:01 [2]", "value": 0.161, "unit": "µM"}]}
{"sequence": "TLLVVMGTL", "values": [{"measurement": "Kd", "setting": "HLA-A*02:01 [1]", "value": 2.63, "unit": "µM"}]}
{"sequence": "TLLVVMGTLV", "values": [{"measurement": "IC50", "setting": "HLA-A*02:01 [2]", "value": 0.357, "unit": "µM"}]}
{"sequence": "TLVALVGLFV", "values": [{"measurement": "IC50", "setting": "HLA-A*02:01 [2]", "value": 0.029, "unit": "µM"}]}
{"sequence": "TTQHWLGLL", "values": [{"measurement": "Kd", "setting": "HLA-A*02:01 [1]", "value": "≥ 10", "unit": "µM"}]}
{"sequence": "VALVGLFVL", "values": [{"measurement": "Kd", "setting": "HLA-A*02:01 [1]", "value": 7.14, "unit": "µM"}]}
{"sequence": "VCMTVDSLV", "values": [{"measurement": "Kd", "setting": "HLA-A*02:01 [1]", "value": 7.14, "unit": "µM"}]}
{"sequence": "VLHSFTDAI", "values": [{"measurement": "IC50", "setting": "HLA-A*02:01 [2]", "value": 0.417, "unit": "µM"}]}
{"sequence": "VTWHRYHLL", "values": [{"measurement": "IC50", "setting": "HLA-A*02:01 [2]", "value": 0.161, "unit": "µM"}]}
{"sequence": "WLGLLGPNG", "values": [{"measurement": "Kd", "setting": "HLA-A*02:01 [1]", "value": "≥ 10", "unit": "µM"}]}
{"sequence": "WMKRFNPPA", "values": [{"measurement": "Kd", "setting": "HLA-A*02:01 [1]", "value": 8.33, "unit": "µM"}]}
{"sequence": "YTPLMETHL", "values": [{"measurement": "Kd", "setting": "HLA-A*02:01 [1]", "value": "≥ 10", "unit": "µM"}]}
